Results published in PMC3328465.

Legend:
CT-SBP2 (human) = assay: EMSA; settings: EMSA: 20 fmol RNA in 20 uL, 1x PBS, glycerol, 250 ug yeast tRNA, 10 mM DTT, 5 ug soybean trypsin inhibitor, 37 C 30 min, 4% native PAGE; pH not stated
CT-SBP2L (human) = assay: EMSA; settings: EMSA: 20 fmol RNA in 20 uL, 1x PBS, glycerol, 250 ug yeast tRNA, 10 mM DTT, 5 ug soybean trypsin inhibitor, 37 C 30 min, 4% native PAGE; pH not stated

| Substance | Kd (CT-SBP2 (human)) [nM] | Kd (CT-SBP2L (human)) [nM] |
| --- | --- | --- |
| DIO1 SECIS | 2.7 | 19.9 |
| DIO2 SECIS | 6.8 | 71.3 |
| DIO3 SECIS | 5.4 | 55.7 |
| GPX1 SECIS | 6.3 | 112 |
| GPX2 SECIS | 10.9 | 135 |
| GPX3 SECIS | 25 | 135 |
| GPX4 SECIS | 13.2 | 58.2 |
| GPX6 SECIS | 150 | 313 |
| SEP15 SECIS | 5 | 52.9 |
| SPS2 SECIS | 7.5 | 129 |
| SelH SECIS | 4.7 | 102 |
| SelI SECIS | 12.2 | 59.2 |
| SelK SECIS | 3.6 | 32.9 |
| SelM SECIS | 3 | 23.4 |
| SelN SECIS | 10.5 | 89 |
| SelO SECIS | 7 | 58.7 |
| SelP SECIS 1 | 3.4 | 59.2 |
| SelP SECIS 2 | 1.6 | 27.6 |
| SelR SECIS | 9.7 | 196 |
| SelS SECIS | 25.9 | 93 |
| SelT SECIS | 4 | 102 |
| SelV SECIS | 6.7 | 12.4 |
| SelW SECIS | 4 | 87.7 |
| TR1 SECIS | 5.8 | 20.6 |
| TR2 SECIS | 11.6 | 54.4 |
| TR3 SECIS | 4.2 | 115 |
